Measured values from US20040019193A1, “Mob-5/hmob-5 as a cancer diagnostic marker” (priority 2002, published 2004).
Blank lines part the entries; values can stand above or below the molecule they belong to.

What was measured:
Rat-1 cells = assay: Over expression of Mob-5 in Rat-1 cells, morphological transformation; assay type: cell-based; settings: retroviral over expression of Mob-5 alone in Rat-1 cells
Excerpt: Over expression of the full length mob-5 cDNA with retroviral vector in a variety of rodent fibroblasts including Rat-1 cells led to high level secretion of Mob-5 protein with a predicted MW of 23 KD into the culture media, which could be readily detected by western blot using polyclonal antibody directed against the recombinant Mob-5 (FIG. 4A).
Construction of mob-5 mammalian expression construct A 680-bp BspHI-Bgl II restriction fragment containing the entire coding region of mob-5 was generated by PCR using cloned mob-5 cDNA as a template. The targeting construct was subsequently inserted between the Nco I and Bam I sites of retroviral vector pMFG-S (Danos and Mulligan, 1988; Dranoff, G. et al. 1993) and sequenced to ensure the sequence accuracy.
Transfection and Retroviral Infection Recombinant plasmids were transfected into target cells by the standard calcium phosphate precipitation method. For retroviral packaging, pMFG-S-Mob-5 was cotransfected with pCMV-Neo vector at a rate of 10:1 (10 μg of pCMV-S-rMob-5: 1 μg of pCMV-Neo) into the CRIP packaging cells to produce G418 (1 mg/ml) resistant stable cell lines. Retroviral infection was carried out essentially as described previously (Zhang et al., 1998). […]

[1] = test system: putative Mob-5 receptor on the cell surface of h-ras transformed RIE cells; assay: AP fusion protein receptor binding assay on RIE cells before and after h-ras transformation; design: species or system rat; settings: normal versus h-ras transformed RIE cells, media at 0.7 unit/ml
Protocol: (E) Mob-5-AP, but not hMob-5-AP, binds specifically to the cell surface of oncogenic h-ras transformed RIE cells. Both the normal and oncogenic h-ras transformed RIE cells were analyzed for the ability to bind Mob-5-AP versus AP alone. The same experiment was carried out with hMob-5-AP and AP alone. The cell surface bound AP activity was measured to reveal a species specific Mob-5 binding activity present only on the cell surface of the h-ras transformed RIE cells. The result is representative of at least 3 independent experiments.
As in Rat-1 cells, the putative Mob-5 receptor was also found to be differentially expressed between the normal and h-ras transformed RIE cells using Mob-5-AP fusion protein as a ligand (FIG. 4E, left panel). To determine whether hMob-5-AP could also differentially bind to the cell surface of h-ras transformed RIE cells, the receptor binding assay was conducted using hMob-5-AP in place of Mob-5-AP.
mob-5 expression is activated by both oncogenic h-ras and k-ras in intestinal epithelial cells Cancer arises from the epithelial cells rather than fibroblasts and K-ras mutations have been tightly linked with cancers of gastric intestinal origins (Kiaris and Spandidos, 1995). […] After the final 5 min extension at 72 ° C., the RT-PCR products were analyzed on a 1.5 % agarose gel. […]

hMob-5 = target: T1, hMob-5 (Homo sapiens, UniProt Q13007); assay: GBA bead capture ELISA for Mob-5, standard curve
T1 sequence (Q13007 1-207 isoform Q13007-2): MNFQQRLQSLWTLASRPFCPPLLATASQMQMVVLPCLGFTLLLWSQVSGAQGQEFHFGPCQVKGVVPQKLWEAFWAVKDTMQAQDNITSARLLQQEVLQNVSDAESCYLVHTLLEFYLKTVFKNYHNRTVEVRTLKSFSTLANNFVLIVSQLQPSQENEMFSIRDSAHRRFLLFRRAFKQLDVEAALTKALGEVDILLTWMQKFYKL
Protocol: This allows the use of GBA in a method for detecting Mob-5 in an ELISA. GBA is utilized to capture the antigen (i.e. Mob-5) and a biotinylated monoclonal antibody to Mob-5 is used to detect the antigen. The use of GBA allows for higher capacity and lower costs when compared to the traditional ELISA method. The method is performed by diluting a biotinylated Mab-hMob-5 (for example, the monoclonal antibody produced from hybridoma clone L-14) 1:500 in PBST (Phosphate Buffered Saline, Tween 0.05%); diluting Streptavidin-HRP (Sigma) 1:500 in PBST; mixing the diluted Mab-hMob-5 with the diluted Streptavidin-HRP in equal volume (for example, […]); letting the mixture sit for 5-10 minutes; washing the GBA beads with PBST twice; spinning and removing the upper liquid phase with an aspirator; resuspending the washed GBA beads in PBST as a 50% suspension; mixing […] of a sample with 100 ml of the diluted Mab-hMob-5 and Streptavidin-HRP mixture in a tube; adding […] of resuspended GBA beads to the tube; allowing the tube to rotate on a roller for 1-2 hours; spinning down the GBA beads for 2 minutes; aspirating the supernatant; washing the beads with 1 ml of PBST twice; washing the beads with dH20 twice; removing the supernatant; adding […] of horseradish peroxidase (HRP) substrate with H2O2 to resuspend the beads; allowing the color to develop in the dark for as long as needed (from hours, to days or weeks). A hMob-5-9×His medium can be utilized as a positive control. One skilled in the art would know that variations of this protocol are possible. For example, the GBA beads may be added to the sample prior to the addition of the biotinylated Mab/streptavidin-HRP mixture, alkaline phosphatase labeled streptavidin can be used, wash times may vary, spin times may vary and development times may vary. By utilizing this method, representative results for a standard curve were obtained.

B1: Mob-5: rat secreted protein of 183 amino acids, 23 KD, encoded by oncogenic ras target gene mob-5 (protein)
chain: PELQGQEFRFGPCQVTGVVLPELWEAFWTVKNTVKTQDELTSVRLLKPQVLQNVSDAESCYLAHSLLKFYLNTVFKNYHSKIVKFKVLKSFSTLANNFLVIMSKLQPSKDNAMLPISDSARRRFLLYHRTFKQLDIEVALAKAFGEVDILLAWMQNFYQL
- morphological transformation on over expression (Rat-1 cells): did not lead to any obvious morphological transformation

B2: hMob-5-AP: human Mob-5 fused at the C-terminus with alkaline phosphatase, 90 KD (SEQ ID NO: 10) (protein)
chain: MNFQQRLQSLWTLASRPFCPPLLATASQMQMVVLPCLGFTLLLWSQVSGAQGQEFHFGPCQVKGVVPQKLWEAFWAVKDTMQAQDNITSARLLQQEVLQNVSDAESCYLVHTLLEFYLKTVFKNYHNRTVEVRTLKSFSTLANNFVLIVSQLQPSQENEMFSIRDSAHRRFLLFRRAFKQLDVEAALTKALGEVDILLTWMQKFYKLGSSGIIPVEEENPDFWNREAAEALGAAKKLQPAQTAAKNLIIFLGDGMGVSTVTAARILKGQKKDKLGPEIPLAMDRFPYVALSKTYNVDKHVPDSGATATAYLCGVKGNFQTIGLSAAARFNQCNTTRGNEVISVMNRAKKAGKSVGVVTTTRVQHASPAGTYAHTVNRNWYSDADVPASARQEGCQDIATQLISNMDIDVILGGGRKYMFPMGTPDPEYPDDYSQGGTRLDGKNLVQEWLAKRQGARYVWNRTELMQASLDPSVTHLMGLFEPGDMKYEIHRDSTLDPSLMEMTEAALRLLSRNPRGFFLFVEGGRIDHGHHESRAYRALTETIMFDDAIERAGQLTSEEDTLSLVTADHSHVFSFGGYPLRGSSIFGLAPGKARDRKAYTVLLYGNGPGYVLKDGARPDVTESESGSPEYRQQSAVPLDEETHAGEDVAVFARGPQAHLVHGVQEQTFIAHVMAFAACLEPYTACDLAPPAGTTDAAHPG
- cell surface binding (bound AP activity) versus AP alone [1]: did not exhibit any preferential cell surface binding

- OD405 (hMob-5; hMob-5 2 ng/ml): 0.216
- OD405 (hMob-5; hMob-5 10 ng/ml): 0.941
- OD405 (hMob-5; hMob-5 20 ng/ml): 1.881
B3: hMob-5: human homolog of Mob-5, secreted protein over expressed in colon cancer (protein)
chain: MNFQQRLQSLWTLASRPFCPPLLATASQMQMVVLPCLGFTLLLWSQVSGAQGQEFHFGPCQVKGVVPQKLWEAFWAVKDTMQAQDNITSARLLQQEVLQNVSDAESCYLVHTLLEFYLKTVFKNYHNRTVEVRTLKSFSTLANNFVLIVSQLQPSQENEMFSIRDSAHRRFLLFRRAFKQLDVEAALTKALGEVDILLTWMQKFYKL
